# Assay results as given in patent US20240207421A1, “NERVE TARGETING PEPTIDES AND METHODS OF USE” (ALUME BIOSCIENCES, INC., priority 2020, published 2024).
# Target: Human Myelin PLP (human) (UniProt P60201)
# Assay: phage display R3, NGS count
# Details: not given
# Chain of Human Myelin PLP (human) (P60201 2-277 limits assumed): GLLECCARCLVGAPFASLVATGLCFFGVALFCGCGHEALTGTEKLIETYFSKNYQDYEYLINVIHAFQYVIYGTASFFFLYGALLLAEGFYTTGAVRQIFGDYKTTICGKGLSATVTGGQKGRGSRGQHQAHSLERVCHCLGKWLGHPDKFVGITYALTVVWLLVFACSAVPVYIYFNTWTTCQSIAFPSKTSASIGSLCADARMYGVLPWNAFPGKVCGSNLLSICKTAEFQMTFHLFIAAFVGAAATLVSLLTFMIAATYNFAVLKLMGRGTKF
row,Substance,Count
1,TNPWKPH (peptide),62
2,LRFQIPP (peptide),44
3,MTPHTSC (peptide),62
4,HQGSRTY (peptide),53
5,EKPSWTR (peptide),33
6,RFELPAP (peptide),52
7,LALYARM (peptide),44
8,SMWSQFR (peptide),34
9,GPFLFTV (peptide),47
10,YTPMGTG (peptide),50
11,LTHHFAP (peptide),40
12,ATLKPYR (peptide),68
13,GLIRHYT (peptide),66

# Results, then the substance that gave them:
row,Count,Substance
1,42,FPVVTRN (peptide)
2,35,YPKLWTY (peptide)
3,33,DTSRTME (peptide)
4,42,RHNVEFS (peptide)
5,34,FKMPIPT (peptide)
6,37,NPSHHPR (peptide)
7,34,NPNWRTI (peptide)

# System: Human Myelin PLP
# Assay: Phage display library screening (Example 2, Python script analysis), binding to Human Myelin PLP
# Details: combined unique sequence count, Python/R script analysis
# Experimental: (§1) Phage display library screens were used to identify peptides that bind to target proteins (including specific laminin trimers) that are expressed in human nerves, as described in Table 3. These screens were also carried out to identify peptides that could bind selectively to nerves versus muscle. Such peptides could therefore be useful for systemic in-vivo labeling of nerves during fluorescence assisted surgery. Specifically, m 13 phage libraries expressing 7 or 12 random amino acid peptides, or a cyclic peptide CX7C, on the N-terminus of the minor coat protein pIII (New England Biolabs; NEB) were processed through multiple rounds of selection for binding to target proteins expressed in nerves, or to excised human nerves, nerve extracts, or muscle, as described further below.
# (§2) For screening against the specified target proteins in Table 1, including LN211, LN411, LN421, and LN521, the phage library was processed by up to 4 binding and wash cycles. For selection, phage libraries were incubated for up to 24 hours at 4° C. in 96 well plates that had been coated with one of the target proteins. Plates were then washed with PBS and phage were eluted using 0.2M glycine pH 2.0. Phage supernatants where then neutralized with Tris pH 9.0 prior to plating on TGI bacteria and LB agar plates. Colonies were counted to determine titer followed by DNA preparation of pools of phage and NextGen sequencing. After rounds of selection, phage were pooled and amplified for iterative selection. Phage that were bound at each round were sequenced. NextGen sequencing of pools after 2, 3 and 4 rounds of selection was used to isolate candidate sequences that were analyzed further to identify those that specifically bound each unique target protein.
# (§3) Python Script Analysis: For all NEB sequence datasets, a python script was used to translate, trim, and filter the peptide sequences. The script translated the nucleotide sequences, translating amber codons as glutamine in peptide sequences, and then trimmed the end sequences that come from the vector. Secondly, the script combined the unique counts of trimmed peptides with identical sequences. […] Another python script was used to group peptides from different assays according to protein target (Myelin Protein Zero, Myelin Proteolipid Protein, Myelin Basic Protein, and Nidogen-2) and also combine the unique sequence counts for each peptide. An R script was written to merge the peptide sequences from different data files and determine peptides specific for each protein target but absent from different protein binding datasets. Peptide sequences were ranked by unique sequence count.
row,Substance,Count
1,VPGHISG (Myelin PLP-binding peptide),27

# Target: Human Myelin PLP (human) (UniProt P60201)
# Assay: phage display, NGS count
# Details: not given
row,Substance,Count
1,TNPWKPH (peptide),62
2,LRFQIPP (peptide),44
3,HQGSRTY (peptide),53
4,EKPSWTR (peptide),33
5,RFELPAP (peptide),52
6,LALYARM (peptide),44
7,SMWSQFR (peptide),34
8,YTPMGTG (peptide),50
9,LTHHFAP (peptide),40
10,ATLKPYR (peptide),68
11,GLIRHYT (peptide),66

# Continued, values first:
row,Count,Substance
1,35,YPKLWTY (peptide)
2,33,DTSRTME (peptide)
3,42,RHNVEFS (peptide)
4,34,FKMPIPT (peptide)
5,37,NPSHHPR (peptide)
6,34,NPNWRTI (peptide)

# Target: Human MPZ (human) (UniProt P25189)
# Assay: phage display, NGS count
# Details: not given
# Chain of Human MPZ (human) (P25189 30-153 limits assumed): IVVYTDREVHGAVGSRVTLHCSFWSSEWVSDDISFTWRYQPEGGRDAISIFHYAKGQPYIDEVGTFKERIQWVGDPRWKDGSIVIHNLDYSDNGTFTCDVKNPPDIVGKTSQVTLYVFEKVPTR
row,Substance,Count
1,KLPTLSV (peptide),44
2,MIHTRQT (peptide),41
3,LWAKRDA (peptide),38
4,HPLMVPS (peptide),41
5,WMTNLDP (peptide),43
6,LVLQTTP (peptide),37
7,FALPAGL (peptide),41
8,FMSDVDH (peptide),37
9,STHEWRT (peptide),45
10,YGQSITE (peptide),37
11,YMKHSPG (peptide),45
12,SVAYVPV (peptide),46
13,YPQARTS (peptide),46
14,SPNTNSH (peptide),40
15,KTPILAS (peptide),38
16,HNQLLYT (peptide),38
17,NPISPRN (peptide),38
18,ISSVTVV (peptide),37
19,VHTPYRS (peptide),41
20,NPTSEGA (peptide),37
21,LPNANNL (peptide),41
22,KRNLWDI (peptide),40
23,AWTMRAS (peptide),39
24,TTLVVTA (peptide),42
25,HHPLFID (peptide),39
26,GSWSSGF (peptide),52
27,ALPISYL (peptide),42
28,LSPPRIM (peptide),43
29,YAPWRVF (peptide),37
30,SYLPPFI (peptide),41

# Further lines, results first:
row,Count,Substance
1,38,IEQVGWR (peptide)
2,37,THSTDLS (peptide)
3,39,LVNPFPE (peptide)
4,42,NASVPPK (peptide)
5,40,GGSKVWG (peptide)
6,46,LVLSNPR (peptide)
7,46,GPVVSGM (peptide)
8,45,TTWPNTA (peptide)
9,45,LPAESHW (peptide)
10,39,FSPRDVS (peptide)
11,38,YSSLTSN (peptide)
12,40,VPLAYLR (peptide)
13,41,SNALSYF (peptide)
14,40,DRYLLNQ (peptide)
15,41,WPRPIQI (peptide)
16,38,SAHSVVE (peptide)
17,45,HPFPRFD (peptide)
18,46,HLDSRRH (peptide)

row,Count,Substance
1,40,TLLHYSA (peptide)
2,50,QIAHLEY (peptide)
3,40,FPSYTIS (peptide)
4,45,AMSNLSY (peptide)
5,38,NTASMTT (peptide)
6,46,NMSHSNR (peptide)
7,40,GLWRHTM (peptide)
8,39,FSTTGRG (peptide)
9,37,LISPTAR (peptide)
10,47,MYHDSVS (peptide)
11,41,SETESYM (peptide)
12,42,FEHMAVT (peptide)
13,41,FRVTQTA (peptide)
14,42,SGHGAFR (peptide)
15,37,KQPAMEN (peptide)
16,41,WTSVATA (peptide)
17,40,VVPLKWI (peptide)
18,39,YEGERGA (peptide)

# System: Human Nidogen-2
# Assay: Phage display library screening (Example 2, Python script analysis), binding to Human Nidogen-2
# Details: combined unique sequence count, Python/R script analysis
# Experimental: as §1, §2, §3
row,Substance,Count
1,WLAAGSQ (Nidogen-2-binding peptide),6
2,QTLRPKQ (Nidogen-2-binding peptide),6
3,QLLESRT (Nidogen-2-binding peptide),6
4,CSSSAPRIC (Nidogen-2-binding peptide),9
5,YNHTMMY (Nidogen-2-binding peptide),7
6,GLRTMEP (Nidogen-2-binding peptide),7
7,CSFKMNQKC (Nidogen-2-binding peptide),8
8,CVDKMASVC (Nidogen-2-binding peptide),6
9,CIHHKGVLC (Nidogen-2-binding peptide),6
10,ATYNMSQ (Nidogen-2-binding peptide),7
11,ALYLPGR (Nidogen-2-binding peptide),7
12,CNLATSLQC (Nidogen-2-binding peptide),6
13,CKDGHIRHC (Nidogen-2-binding peptide),6
14,TPWLPTI (Nidogen-2-binding peptide),7
15,LHITPEV (Nidogen-2-binding peptide),6
16,LVHPFHG (Nidogen-2-binding peptide),8
17,HSRLPTP (Nidogen-2-binding peptide),13
18,ARMAFSL (Nidogen-2-binding peptide),7
19,EAMMHRN (Nidogen-2-binding peptide),6
20,LSIRGLT (Nidogen-2-binding peptide),6
21,CYSAPTKSC (Nidogen-2-binding peptide),6
22,NILSQVN (Nidogen-2-binding peptide),6
23,TIASLLV (Nidogen-2-binding peptide),6
24,QMDAKHM (Nidogen-2-binding peptide),6
25,CRSPHEPMC (Nidogen-2-binding peptide),6
